For assay [1], the target named is T1, PtoCPNα (Picrophilus oshimae, UniProt Q6L132, D139G).
T1 construct: gene PTO0735; full length, untagged, pET23b in E. coli BL21(DE3); reassembled homo-oligomer (hexadecamer, 914 kDa); D139G from cloning; forward primer encodes MITGQTPILILKEGTERQ; locus assigned by printed order (other locus PTO1195)
T1 sequence (Q6L132 1-546 D139G): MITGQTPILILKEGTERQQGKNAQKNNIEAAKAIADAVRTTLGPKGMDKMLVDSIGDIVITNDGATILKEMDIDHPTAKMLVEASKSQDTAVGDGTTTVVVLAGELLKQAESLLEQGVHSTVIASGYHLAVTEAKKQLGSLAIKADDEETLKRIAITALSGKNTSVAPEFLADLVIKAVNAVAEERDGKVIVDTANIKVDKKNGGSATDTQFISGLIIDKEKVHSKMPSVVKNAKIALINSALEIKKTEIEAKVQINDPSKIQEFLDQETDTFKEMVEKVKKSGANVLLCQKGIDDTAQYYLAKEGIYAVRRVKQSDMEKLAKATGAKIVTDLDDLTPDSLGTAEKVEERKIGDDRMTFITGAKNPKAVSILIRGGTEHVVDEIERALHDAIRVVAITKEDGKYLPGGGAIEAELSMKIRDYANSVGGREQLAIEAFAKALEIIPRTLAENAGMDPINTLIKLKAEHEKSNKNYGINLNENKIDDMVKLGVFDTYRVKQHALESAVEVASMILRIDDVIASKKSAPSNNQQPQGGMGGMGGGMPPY
The assay is described as follows: ATP-dependent refolding of acid-denatured GFP. The format is biochemical. The following applies: 1 mM ATP, 50 mM Tris-HCl pH 7.5, 25 mM MgCl2, 100 mM KCl, 50 °C (figure legend: 60 °C).

Assay [2] has as its target T2, PtoCPNα (Picrophilus oshimae, UniProt Q6L132, D139G/S260C/C290S).
T2 construct: gene PTO0735; full length, untagged, pET23b in E. coli BL21(DE3); reassembled homo-oligomer (hexadecamer, 914 kDa); D139G from cloning; forward primer encodes MITGQTPILILKEGTERQ; locus assigned by printed order (other locus PTO1195)
T2 sequence (Q6L132 1-546 D139G/S260C/C290S): T1 sequence (Q6L132 1-546 D139G) with S260C, C290S
As to the kind of experiment: fluorescence change of fluorescein on Cys260. The following applies: 1 mM ATP, 50 nM chaperonin, 50 mM Tris-HCl pH 7.5, 25 mM MgCl2, 100 mM KCl, 60 °C; protein labelled with fluorescein 5-maleimide. The format is binding.

The target in assay [3] is α type group II CPN of Picrophilus torridus (Picrophilus torridus). As to the kind of experiment: SEC-MALS; WTC-100S5 column, 25 °C, 50 mM Tris-HCl pH 7.5, 25 mM MgCl2, 0.2 mM ATP, 300 mM (NH4)SO4, 1 mM DTT, 1.0 mL/min; purified oligomers. On the technique in general: SEC sorts molecules by how far they enter the pores of the column.
Assay [4] concerns the target Green fluorescent protein, acid-denatured [GFP: P42212]. As to the kind of experiment: GFP releasing assay (recovery of GFP fluorescence, fit of two consecutive steps); acid-denatured GFP captured by 400 nM PtoCPNα at 60 °C for 5 min in HKM buffer with 1 mM DTT, then diluted 10-fold into the same buffer at 30 °C; k1 is the release of denatured GFP.
Assay [5] has the same target. The assay is described as follows: GFP releasing assay (recovery of GFP fluorescence, fit of two consecutive steps); acid-denatured GFP captured by 400 nM PtoCPNα at 60 °C for 5 min in HKM buffer with 1 mM DTT, then diluted 10-fold into the same buffer at 50 °C; k1 is the release of denatured GFP.
Assay [6] deals with β type group II CPN of Picrophilus torridus (Picrophilus torridus). The assay is described as follows: SEC-MALS; WTC-100S5 column, 25 °C, 50 mM Tris-HCl pH 7.5, 25 mM MgCl2, 0.2 mM ATP, 300 mM (NH4)SO4, 1 mM DTT, 1.0 mL/min; purified oligomers.

A word on the stoichiometry N: it is the number of molecules, sites or subunits per partner or assembly. Broadly, the koff is a measure of how fast the partners let go of each other. Lower therefore signals slow dissociation.

Changes are numbered by the printed parent chain.

Turning to `Nc1ncnc2c1ncn2[C@@H]1O[C@H](COP(=O)(O)OP(=O)(O)OP(=O)(O)O)[C@@H](O)[C@H]1O` [ATP], the “ATP-dependent refolding of acid-denatured GFP” value on PtoCPNα [1] was “enhances its refolding in an ATP‐dependent manner”. The “% decrease in maximal fluorescence intensity” value on PtoCPNα [2] is listed as ~ 15.5%.

As for “α type group II CPN of Picrophilus torridus (complex)”, the stoichiometry N in assay [3] was 16. Besides, the koff was found to be 0.478 s⁻¹ in assay [4] and 0.118 s⁻¹ in assay [5].

For “β type group II CPN of Picrophilus torridus (complex)”, the stoichiometry N in assay [6] was 14.

Source of the values: paper PMC4932455, “Characterization of group II chaperonins from an acidothermophilic archaeon Picrophilus torridus” (FEBS Open Bio, 2016).
